How the values were obtained:
[1] = target: T1, human TNFR2 expressed on cells (human, UniProt P20333 23-461); assay: blocking of biotinylated TNF-α on TNFR2-CHO cells, flow cytometry
T1 construct: whole, on cells; also called hTNFR2 (cell); CHO-TNFR2
T1 sequence (looked up): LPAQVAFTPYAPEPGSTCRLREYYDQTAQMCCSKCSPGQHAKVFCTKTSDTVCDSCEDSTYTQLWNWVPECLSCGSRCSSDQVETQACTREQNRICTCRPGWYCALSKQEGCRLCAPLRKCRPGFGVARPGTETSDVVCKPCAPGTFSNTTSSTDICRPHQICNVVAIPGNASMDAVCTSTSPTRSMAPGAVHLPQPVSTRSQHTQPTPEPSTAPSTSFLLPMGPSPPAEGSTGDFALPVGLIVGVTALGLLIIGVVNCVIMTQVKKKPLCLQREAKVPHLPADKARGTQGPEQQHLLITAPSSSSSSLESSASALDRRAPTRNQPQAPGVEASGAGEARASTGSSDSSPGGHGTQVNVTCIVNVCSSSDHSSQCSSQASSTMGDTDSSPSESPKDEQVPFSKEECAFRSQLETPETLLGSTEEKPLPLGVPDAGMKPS
Procedure: TNFR2-overexpressing CHO cells were plated at 100,000 cells per well. Cells were incubated with the indicated antibodies for 30 minutes on ice. […] Cells were analyzed using Cytoflex or MACSQuant flow cytometer. Assay was repeated twice.

[2] = target: T2, osteoprotegerin (OPG) (UniProt O00300 22-401, limits assumed); assay: ELISA on coated OPG, OD 650 nm
T2 sequence (looked up): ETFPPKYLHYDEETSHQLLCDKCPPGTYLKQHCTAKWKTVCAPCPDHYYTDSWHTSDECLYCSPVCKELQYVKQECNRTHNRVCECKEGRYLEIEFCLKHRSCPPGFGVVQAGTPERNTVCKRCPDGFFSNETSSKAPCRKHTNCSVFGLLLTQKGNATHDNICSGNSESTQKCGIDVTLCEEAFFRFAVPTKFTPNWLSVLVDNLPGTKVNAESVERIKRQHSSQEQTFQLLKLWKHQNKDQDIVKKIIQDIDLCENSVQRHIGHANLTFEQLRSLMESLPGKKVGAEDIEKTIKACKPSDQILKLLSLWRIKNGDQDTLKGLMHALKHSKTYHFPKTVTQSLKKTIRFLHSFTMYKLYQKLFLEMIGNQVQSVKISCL
Procedure: (§1) To test binding to TNFR family members, target proteins were coated on ELISA plates at 1 μg/mL at 4° C. overnight. Plates were washed, blocked, and antibodies were added at indicated concentrations for 1 hour at RT. Positive control antibodies for each protein were used at ˜1 ug/mL. Antibodies were washed and detected with anti-human IgG HRP for 1 hour. Assay was developed using TMB substrate for 10 minutes. For cell-binding, human CD4+ T cells purified from buffy coats were cultured in flat-bottom plates with anti-CD3/CD28 for 24 hours. Cells were harvested and stained for viability, CD4, CD25 and FOXP3. Test antibody staining was detected using anti-human IgG APC. Binding titration of test antibodies was evaluated on CD4+CD25hiFOXP3+ regulatory T cells and plotted as percent binding.

[3] = target: CD40 (UniProt P25942 21-193, limits assumed); assay: ELISA on coated CD40, OD 650 nm
Chain of CD40 (P25942 21-193 limits assumed): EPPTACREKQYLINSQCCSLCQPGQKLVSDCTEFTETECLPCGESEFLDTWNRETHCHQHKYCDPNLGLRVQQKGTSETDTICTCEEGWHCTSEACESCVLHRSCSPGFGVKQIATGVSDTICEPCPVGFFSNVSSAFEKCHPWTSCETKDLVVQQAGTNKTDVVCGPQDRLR
Procedure: as §1

[4] = target: T3, human TNFR2-His tagged protein (soluble) (human, UniProt P20333 23-257); assay: ELISA on coated hTNFR2-His, OD 450 nm
T3 construct: also called hTNFR2 (soluble); soluble TNFR2-His; not shown: His tag
T3 sequence (looked up): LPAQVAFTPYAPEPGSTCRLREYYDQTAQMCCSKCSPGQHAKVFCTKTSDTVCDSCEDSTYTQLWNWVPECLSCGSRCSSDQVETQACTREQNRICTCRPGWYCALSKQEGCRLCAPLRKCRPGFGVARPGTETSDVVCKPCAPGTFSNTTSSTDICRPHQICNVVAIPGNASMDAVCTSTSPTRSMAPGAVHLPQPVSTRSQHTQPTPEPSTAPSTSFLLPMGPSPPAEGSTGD

[5] = target: T1, human TNFR2 expressed on cells; assay: flow cytometry, cell-expressed human TNFR2
[6] = target: T4, cynomolgus TNFR2-His tagged protein (cynomolgus, UniProt A0A2K5VET2 132-366); assay: ELISA, cynomolgus TNFR2
T4 construct: also called Cyno TNFR2; cynomolgus TNFR2 protein; not shown: His tag
T4 sequence: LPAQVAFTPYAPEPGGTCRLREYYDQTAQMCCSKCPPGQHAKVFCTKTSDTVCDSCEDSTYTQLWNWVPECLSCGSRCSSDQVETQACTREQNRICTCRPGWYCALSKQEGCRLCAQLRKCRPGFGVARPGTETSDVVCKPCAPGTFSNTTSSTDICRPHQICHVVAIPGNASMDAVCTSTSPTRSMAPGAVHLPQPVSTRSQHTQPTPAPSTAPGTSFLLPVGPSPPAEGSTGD

[7] = target: T4, cynomolgus TNFR2-His tagged protein; assay: ELISA on coated cynoTNFR2-His, OD 450 nm
[8] = target: T3, human TNFR2-His tagged protein (soluble); assay: ELISA, soluble human TNFR2
[9] = target: T5, death receptor 6 (DR6) (UniProt O75509 42-349, limits assumed); assay: ELISA on coated DR6, OD 650 nm
T5 sequence (looked up): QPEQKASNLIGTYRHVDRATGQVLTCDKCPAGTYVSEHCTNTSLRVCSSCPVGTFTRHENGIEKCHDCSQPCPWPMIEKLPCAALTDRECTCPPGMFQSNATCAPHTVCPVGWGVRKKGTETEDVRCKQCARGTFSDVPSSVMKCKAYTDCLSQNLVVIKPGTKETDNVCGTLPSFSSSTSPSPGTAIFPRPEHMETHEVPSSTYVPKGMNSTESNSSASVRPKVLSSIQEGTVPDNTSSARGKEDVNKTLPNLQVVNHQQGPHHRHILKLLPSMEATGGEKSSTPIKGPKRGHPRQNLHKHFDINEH
Procedure: as §1

[10] = target: T6, TNFR2 (as used in the Octet measurement) (UniProt P20333 23-257, limits assumed); assay: Octet (BLI), monovalent binding
T6 construct: Probably human soluble TNFR2; the legend says only TNFR2
T6 sequence (looked up): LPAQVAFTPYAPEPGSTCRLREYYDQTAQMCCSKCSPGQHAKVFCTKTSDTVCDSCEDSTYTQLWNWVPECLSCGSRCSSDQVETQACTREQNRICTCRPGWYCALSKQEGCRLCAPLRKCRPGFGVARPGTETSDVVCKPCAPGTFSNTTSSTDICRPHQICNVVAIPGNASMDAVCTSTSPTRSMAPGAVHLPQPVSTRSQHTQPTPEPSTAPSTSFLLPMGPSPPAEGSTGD

[11] = target: T7, TNFR-Fc (UniProt P20333 23-257, limits assumed); assay: TNF-α blocking ELISA (soluble)
T7 construct: Printed only as TNFR-Fc; not shown: Fc part
T7 sequence (looked up): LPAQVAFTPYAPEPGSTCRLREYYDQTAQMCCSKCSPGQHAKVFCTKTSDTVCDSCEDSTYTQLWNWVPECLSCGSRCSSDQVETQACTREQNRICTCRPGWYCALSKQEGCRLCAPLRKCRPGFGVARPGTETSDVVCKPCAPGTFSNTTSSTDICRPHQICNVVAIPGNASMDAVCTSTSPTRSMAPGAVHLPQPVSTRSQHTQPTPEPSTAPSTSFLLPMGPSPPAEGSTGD

- IC50 [1]: 0.149 nM
- binding result [2]: no binding (tested: about 67 nM)
- binding result [3]: no binding (tested: about 67 nM)
- EC50 (read off the curve) [4]: ~0.2 nM
- EC50 [5]: 0.242 nM
- EC50 [6]: 0.123 nM
- EC50 (read off the curve) [7]: ~0.1 nM
- EC50 [8]: 0.159 nM
- koff [10]: 0.000553 s⁻¹
- kon [10]: 358000 M⁻¹ s⁻¹
- IC50 [11]: 1.96 nM
B1: humanized antibody h600-25-71 (antibody, V domains shown)
VH: EVQLVESGGGLVQPGGSLRLSCAASGIDLSSYAMGWVRQAPGKGLEWVGDISTSGNAYYATWVKGRFTISRDNSKNTLYLQMNSLRAEDTAVYYCARADYGGETYAFDPWGQGTLVTVSS
VL: DIQMTQSPSSLSASVGDRVTITCQASQSISSYLNWYQQKPGKAPKLLIYSASTLASGVPSRFSGSGSGTDFTLTISSLQPEDFATYYCQQGYSDSNIDNVFGGGTKVEIK
notes: also called Ab 25-71; clone 25-71
- binding result [9]: no binding (tested: about 67 nM)
